We go through 167 variants from the RNAGym collection of RNA variant scans (doi:10.7554/elife.80360).

B1: CPEB3 Ribozyme (parent)
chain: GGGGGCCACAGCAGAAGCGUUCACGUCGCGGCCCCUGUCAGAUUCUGGUGAAUCUGCGAAUUCUGCUGU

The variants in the data set derive from B1. As to the kind of experiment: self-cleavage, relative activity (ratio to wild type); higher = more cleavage; co-transcriptional.
As to G4C G5A, the self-cleavage was 0.0843.
For G4C C57U, the self-cleavage amounted to 0.234.
For the variant G4C C57G, the self-cleavage turned out to be 0.15.
Then G4U C24U, with 0.193; and G4U U26C, with 0.641; and G4U U26A, with 0.282.
For G4C A59C, the self-cleavage amounted to 0.187.
As for G4U U44A, the self-cleavage is 0.532.
Consider G5A G47U, for which the self-cleavage is 0.932.
Consider G4U U62A, for which the self-cleavage was 0.315.
The value for G4U C57A was 0.17; that for G4C C63G was 0.211; that for G4C U46A was 0.663.
For G4C U46G, the self-cleavage amounted to 0.601.
Then G4C A42G, with 0.667.
As to G4U U21G, the self-cleavage was 0.054.
Then G5A C12U, with 0.931; and G5A C22A, with 0.134; and G4U A15C, with 0.138.
Consider G4U A15G, for which the self-cleavage stood at 0.678.
On to G4U U38G, for which the self-cleavage was found to be 0.114.
Turning to G4C C6U, the self-cleavage came to 0.132.
With G5A C39U, the self-cleavage amounted to 0.653.
Turning to G4U U43C, the self-cleavage was determined as 0.462.
The value for G4C C27A was 0.0979; that for G4C C27G was 0.108.
Regarding G4U A23U, the self-cleavage stood at 0.86.
For the variant G4U A23C, the self-cleavage was found to be 0.573.
As for G5A C66U, the self-cleavage came to 0.88.
As for G4U G37U, the self-cleavage turned out to be 0.128.
As to G4C A10G, the self-cleavage is 0.748.
On to G4C A10C, for which the self-cleavage amounted to 0.844.
In the case of G4C U49G, the self-cleavage worked out at 0.341.
On to G4C U49C, for which the self-cleavage is 0.548.
In the case of G4C U49A, the self-cleavage stood at 0.657.
The value for G5A A16C was 0.134; that for G4U U61G was 0.439.
As to G4U U61A, the self-cleavage amounted to 0.154.
Take G4U U67G: the self-cleavage was determined as 0.921.
Turning to G4C C35U, the self-cleavage turned out to be 0.0739.
Then G4U A13G, with 0.649; and G4C C22U, with 0.074.
With G4C C22G, the self-cleavage is 0.082.
As for G4C U69C, the self-cleavage was 0.958.
The value for G4U G68C was 0.97; that for G4U G68A was 0.983; that for G4C G17A was 0.0822.
For G4C G17U, the self-cleavage was 0.0737.
For G5A C34U, the self-cleavage is 0.599.
As to G5A C34A, the self-cleavage was 0.203.
Take G4C G56U: the self-cleavage stood at 0.339.
For G4U G31A, the self-cleavage was determined as 0.0947.
Consider G4U C29G, for which the self-cleavage amounted to 0.1.
On to G4U C29U, for which the self-cleavage worked out at 0.192.
As for G4U C7G, the self-cleavage turned out to be 0.0264.
The value for G4U C7A was 0.0496; that for G4C G19U was 0.103.
As to G4C G19C, the self-cleavage was 0.104.
On to G5A, for which the self-cleavage turned out to be 0.933.
Then G4C C33U, with 0.804; and G4C C33G, with 0.98.
Then G4C C33A, with 0.989.
Consider G4C G68C, for which the self-cleavage was found to be 0.941.
Consider G4C G68A, for which the self-cleavage was determined as 0.976.
The value for G5A C33U was 0.568; that for G5A A40U was 0.719.
The value for G4C A52U was 0.603; that for G4U G58U was 0.798; that for G4C U62A was 0.157.
As for G4C G30C, the self-cleavage came out at 0.0792.
Regarding G4U U49C, the self-cleavage stood at 0.758.
Turning to G4U U49A, the self-cleavage is 0.821.
Take G4U G65C: the self-cleavage was found to be 0.411.
Consider G4U G65U, for which the self-cleavage was determined as 0.254.
As to G5A C63G, the self-cleavage was 0.448.
For the variant G5A G30C, the self-cleavage worked out at 0.156.
For G5A G30A, the self-cleavage was 0.156.
As for G5A A42C, the self-cleavage came out at 0.505.
The value for G4U was 0.806.
Regarding G5A C29G, the self-cleavage came to 0.175.
The value for G4U C27G was 0.0677.
The value for G5A G19U was 0.197.
As to G4C G41U, the self-cleavage is 0.159.
The value for G4C C34A was 0.16; that for G4C C34U was 0.383.
Then G4U U69C, with 1.02; and G4U U69G, with 0.941.
The value for G5A C6G was 0.0495; that for G4U G48U was 0.813.
Consider G4U G48C, for which the self-cleavage was 0.752.
The value for G5A C32U was 0.992.
In the case of G5A C32G, the self-cleavage worked out at 0.847.
G4U G5A: the self-cleavage came to 0.0691.
The value for G4U G5C was 0.105; that for G4U C18A was 0.0913; that for G5A G37A was 0.143.
As to G4C A60C, the self-cleavage stood at 0.188.
With G4C A60G, the self-cleavage turned out to be 0.235.
The value for G4C U55G was 0.231; that for G4C G31A was 0.179.
Turning to G4C G31U, the self-cleavage amounted to 0.179.
Then G5A A23G, with 0.806.
Then G5A A23C, with 0.766; and G5A A15G, with 0.846; and G4U A42C, with 0.179.
In the case of G4U G30A, the self-cleavage worked out at 0.142.
Then G4C A16U, with 0.197; and G4C A16C, with 0.0339.
On to G4U G17C, for which the self-cleavage was found to be 0.112.
The value for G4U G17U was 0.072; that for G5A A13U was 0.642.
For G5A A13G, the self-cleavage is 0.88.
The value for G4U G14A was 0.257.
For G4C C32A, the self-cleavage was 0.188.
On to G4C C32G, for which the self-cleavage amounted to 0.0983.
Consider G4C U61A, for which the self-cleavage is 0.147.
For G5A G11A, the self-cleavage came to 0.785.
Turning to G4U A60G, the self-cleavage is 0.302.
For the variant G4U G41A, the self-cleavage was 0.265.
Then G4U G41U, with 0.251.
With G5A A59U, the self-cleavage came out at 0.415.
On to G4C A15U, for which the self-cleavage worked out at 0.0935.
Consider G4C G48A, for which the self-cleavage came to 0.731.
In the case of G4U G56A, the self-cleavage was 0.466.
Turning to G4U C33G, the self-cleavage was determined as 1.
Take G4U C6U: the self-cleavage turned out to be 0.31.
The value for G4U C63A was 0.306; that for G4U C63U was 0.739; that for G4U G50C was 0.764.
On to G4U G50U, for which the self-cleavage amounted to 0.817.
For the variant G4U A16G, the self-cleavage is 0.444.
Regarding G4U A16C, the self-cleavage stood at 0.0815.
Turning to G4U A8C, the self-cleavage came out at 0.691.
For G4U A8G, the self-cleavage came to 0.512.
Then G4C A23U, with 0.801.
On to G4C U44A, for which the self-cleavage came out at 0.373.
With G4C U44C, the self-cleavage was found to be 0.47.
In the case of G5A G17C, the self-cleavage was 0.0889.
On to G5A G17A, for which the self-cleavage worked out at 0.166.
The value for G4C U26C was 0.472; that for G4U A10C was 0.905.
As for G4U A10G, the self-cleavage was found to be 0.784.
With G4U C39G, the self-cleavage was determined as 0.558.
Regarding G4U C39U, the self-cleavage stood at 0.376.
Then G4U A40C, with 0.199; and G4C U64G, with 0.355; and G4C U43G, with 0.26.
As for G4C U43C, the self-cleavage was found to be 0.406.
On to G5A C18A, for which the self-cleavage was found to be 0.12.
In the case of G5A G48C, the self-cleavage was determined as 0.956.
As for G4C C39G, the self-cleavage came to 0.298.
Take G4C C24U: the self-cleavage was 0.124.
G4U G28A: the self-cleavage was 0.0947.
Turning to G4U G28U, the self-cleavage is 0.0847.
As for G4C A13C, the self-cleavage is 0.216.
Consider G4U C22G, for which the self-cleavage came to 0.0672.
The value for G4C G50U was 0.637; that for G4C U53G was 0.142.
The value for G4C G47C was 0.718; that for G4U C66G was 0.431; that for G4C C29U was 0.131.
In the case of G4U A59G, the self-cleavage is 0.442.
Take G4C C7G: the self-cleavage came out at 0.0794.
Then G4U C9U, with 0.954; and G5A C9U, with 1.02; and G5A C9G, with 0.982.
In the case of G4C U38C, the self-cleavage was found to be 0.302.
